Measurements taken from paper PMC3351170 (Nucleic Acids Research, 2012).

What was measured:
[1] = biological target: the molecule itself; assay: SEC
[2] = biological target: the molecule itself; assay: SEC; remark: listed apart in the source
[3] = biological target: the molecule itself; assay: AUC

B1: SATB1 ubiquitin-like domain (ULD), residues 71-172 (domain or fragment, mouse, UniProt Q60611 71-172, looked up)
chain: GTMLPVFCVVEHYENAIEYDCKEEHAEFVLVRKDMLFNQLIEMALLSLGYSHSSAAQAKGLIQVGKWNPVPLSYVTDAPDATVADMLQDVYHVVTLKIQLHS
stoichiometry N [1]: 4

B2: SATB1 EFH-AAA mutant, full length (natural protein, mouse, UniProt Q60611 1-764, looked up)
chain: MDHLNEATQGKEHSEMSNNVSDPKGPPAKIARLEQNGSPLGRGRLGSTGGKMQGVPLKHSGHLMKTNLRKGTMLPVFCVVEHYENAIEYDCKEEHAAAVLVRKDMLFNQLIEMALLSLGYSHSSAAQAKGLIQVGKWNPVPLSYVTDAPDATVADMLQDVYAVVTLKIQLHSCPKLEDLPPEQWSHTTVRNALKDLLKDMNQSSLAKECPLSQSMISSIVNSTYYANVSAAKCQEFGRWYKHFKKTKDMMVEMDSLSELSQQGANHVNFGQQPVPGNTAEQPPSPAQLSHGSQPSVRTPLPNLHPGLVSTPISPQLVNQQLVMAQLLNQQYAVNRLLAQQSLNQQYLNHPPPVSRSMNKPLEQQVSTNTEVSSEIYQWVRDELKRAGISQAVFARVAFNRTQGLLSEILRKEEDPKTASQSLLVNLRAMQNFLQLPEAERDRIYQDERERSLNAASAMGPAPLLSTPPSRPPQVKTATLATERNGKPENNTMNINASIYDEIQQEMKRAKVSQALFAKVAATKSQGWLCELLRWKEDPSPENRTLWENLSMIRRFLSLPQPERDAIYEQESNAVHHHGDRPPHIIHVPAEQIQQQQQQQQQQQQQQQPPPPPPQPQPQPQAGPRLPPRQPTVASSAESDEENRQKTRPRTKISVEALGILQSFIQDVGLYPDEEAIQTLSAQLDLPKYTIIKFFQNQRYYLKHHGKLKDNSGLEVDVAEYKDEELLKDLEESVQDKNANTLFSVKLEEELSVEGSTDVNADLKD
binding result [2]: binds

B3: SATB1 KWN-AAA mutant, full length (natural protein, mouse, UniProt Q60611 1-764, looked up)
chain: MDHLNEATQGKEHSEMSNNVSDPKGPPAKIARLEQNGSPLGRGRLGSTGGKMQGVPLKHSGHLMKTNLRKGTMLPVFCVVEHYENAIEYDCKEEHAEFVLVRKDMLFNQLIEMALLSLGYSHSSAAQAKGLIQVGAAAPVPLSYVTDAPDATVADMLQDVYHVVTLKIQLHSCPKLEDLPPEQWSHTTVRNALKDLLKDMNQSSLAKECPLSQSMISSIVNSTYYANVSAAKCQEFGRWYKHFKKTKDMMVEMDSLSELSQQGANHVNFGQQPVPGNTAEQPPSPAQLSHGSQPSVRTPLPNLHPGLVSTPISPQLVNQQLVMAQLLNQQYAVNRLLAQQSLNQQYLNHPPPVSRSMNKPLEQQVSTNTEVSSEIYQWVRDELKRAGISQAVFARVAFNRTQGLLSEILRKEEDPKTASQSLLVNLRAMQNFLQLPEAERDRIYQDERERSLNAASAMGPAPLLSTPPSRPPQVKTATLATERNGKPENNTMNINASIYDEIQQEMKRAKVSQALFAKVAATKSQGWLCELLRWKEDPSPENRTLWENLSMIRRFLSLPQPERDAIYEQESNAVHHHGDRPPHIIHVPAEQIQQQQQQQQQQQQQQQPPPPPPQPQPQPQAGPRLPPRQPTVASSAESDEENRQKTRPRTKISVEALGILQSFIQDVGLYPDEEAIQTLSAQLDLPKYTIIKFFQNQRYYLKHHGKLKDNSGLEVDVAEYKDEELLKDLEESVQDKNANTLFSVKLEEELSVEGSTDVNADLKD
stoichiometry N [3]: 2
